Experimental data published in doi:10.1101/2020.02.11.943597.

Tests used:
[1] = target: T1, N-cadherin (human (endogenous in primary fibroblasts)), P19022; assay: AFM single-cell force spectroscopy; conditions: remark: other sources report otherwise
T1 chain: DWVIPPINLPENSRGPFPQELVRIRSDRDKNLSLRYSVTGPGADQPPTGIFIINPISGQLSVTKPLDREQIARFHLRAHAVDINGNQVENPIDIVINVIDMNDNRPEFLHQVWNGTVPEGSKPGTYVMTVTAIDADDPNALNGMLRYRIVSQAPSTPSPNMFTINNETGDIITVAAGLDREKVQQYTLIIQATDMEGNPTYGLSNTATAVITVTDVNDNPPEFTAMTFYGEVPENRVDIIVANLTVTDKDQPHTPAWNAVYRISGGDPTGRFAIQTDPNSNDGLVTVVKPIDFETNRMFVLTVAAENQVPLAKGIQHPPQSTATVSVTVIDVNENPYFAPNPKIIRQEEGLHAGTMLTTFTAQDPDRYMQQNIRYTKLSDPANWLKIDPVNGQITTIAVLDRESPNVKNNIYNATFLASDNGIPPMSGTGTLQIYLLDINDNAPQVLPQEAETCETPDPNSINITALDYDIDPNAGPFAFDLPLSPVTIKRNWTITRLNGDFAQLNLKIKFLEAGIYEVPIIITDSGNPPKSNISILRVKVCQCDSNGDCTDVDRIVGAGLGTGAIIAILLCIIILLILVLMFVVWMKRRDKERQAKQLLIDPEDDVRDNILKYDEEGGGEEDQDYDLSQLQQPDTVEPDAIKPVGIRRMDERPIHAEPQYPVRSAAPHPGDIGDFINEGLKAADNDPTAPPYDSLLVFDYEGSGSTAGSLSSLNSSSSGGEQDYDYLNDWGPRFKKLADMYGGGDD

[2] = target: T1, N-cadherin (human (endogenous in …)); assay: AFM single-cell force spectroscopy; conditions: remark: other sources report otherwise

median rupture force [1]: 51.9 pN | median rupture force [2]: 45.2 pN
B1: N-cadherin, P19022 160-906 (natural protein)
chain: DWVIPPINLPENSRGPFPQELVRIRSDRDKNLSLRYSVTGPGADQPPTGIFIINPISGQLSVTKPLDREQIARFHLRAHAVDINGNQVENPIDIVINVIDMNDNRPEFLHQVWNGTVPEGSKPGTYVMTVTAIDADDPNALNGMLRYRIVSQAPSTPSPNMFTINNETGDIITVAAGLDREKVQQYTLIIQATDMEGNPTYGLSNTATAVITVTDVNDNPPEFTAMTFYGEVPENRVDIIVANLTVTDKDQPHTPAWNAVYRISGGDPTGRFAIQTDPNSNDGLVTVVKPIDFETNRMFVLTVAAENQVPLAKGIQHPPQSTATVSVTVIDVNENPYFAPNPKIIRQEEGLHAGTMLTTFTAQDPDRYMQQNIRYTKLSDPANWLKIDPVNGQITTIAVLDRESPNVKNNIYNATFLASDNGIPPMSGTGTLQIYLLDINDNAPQVLPQEAETCETPDPNSINITALDYDIDPNAGPFAFDLPLSPVTIKRNWTITRLNGDFAQLNLKIKFLEAGIYEVPIIITDSGNPPKSNISILRVKVCQCDSNGDCTDVDRIVGAGLGTGAIIAILLCIIILLILVLMFVVWMKRRDKERQAKQLLIDPEDDVRDNILKYDEEGGGEEDQDYDLSQLQQPDTVEPDAIKPVGIRRMDERPIHAEPQYPVRSAAPHPGDIGDFINEGLKAADNDPTAPPYDSLLVFDYEGSGSTAGSLSSLNSSSSGGEQDYDYLNDWGPRFKKLADMYGGGDD
